# Test results reported in patent US20150044226A1 (SBI BIOTECH, published 2015).
# T1: human PLD4 (phospholipase D4) protein (human, UniProt Q96BZ4 1-506)
# T1 construct: Type II transmembrane protein, 506 a.a; also called hPLD4; HuPLD4
# T1 sequence: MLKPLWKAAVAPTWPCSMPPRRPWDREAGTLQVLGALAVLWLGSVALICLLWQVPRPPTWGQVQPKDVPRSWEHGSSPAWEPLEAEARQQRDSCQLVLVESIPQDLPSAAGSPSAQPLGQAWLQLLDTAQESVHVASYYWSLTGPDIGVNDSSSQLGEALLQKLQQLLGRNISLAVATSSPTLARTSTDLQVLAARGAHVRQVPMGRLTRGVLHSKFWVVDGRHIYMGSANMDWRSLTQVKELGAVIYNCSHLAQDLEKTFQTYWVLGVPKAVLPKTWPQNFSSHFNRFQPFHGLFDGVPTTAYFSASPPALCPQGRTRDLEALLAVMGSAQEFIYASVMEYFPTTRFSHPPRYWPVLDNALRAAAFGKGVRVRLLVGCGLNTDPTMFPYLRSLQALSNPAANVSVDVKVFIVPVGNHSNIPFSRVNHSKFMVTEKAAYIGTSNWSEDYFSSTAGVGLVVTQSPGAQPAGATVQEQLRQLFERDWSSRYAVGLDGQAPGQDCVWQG
# T2: cynomolgus monkey PLD4 (cynomolgus monkey, UniProt Q96BZ4 1-506 (human entry))
# T2 construct: also called cynomolgus monkey PLD4 protein; cyno PLD4
# T2 chain: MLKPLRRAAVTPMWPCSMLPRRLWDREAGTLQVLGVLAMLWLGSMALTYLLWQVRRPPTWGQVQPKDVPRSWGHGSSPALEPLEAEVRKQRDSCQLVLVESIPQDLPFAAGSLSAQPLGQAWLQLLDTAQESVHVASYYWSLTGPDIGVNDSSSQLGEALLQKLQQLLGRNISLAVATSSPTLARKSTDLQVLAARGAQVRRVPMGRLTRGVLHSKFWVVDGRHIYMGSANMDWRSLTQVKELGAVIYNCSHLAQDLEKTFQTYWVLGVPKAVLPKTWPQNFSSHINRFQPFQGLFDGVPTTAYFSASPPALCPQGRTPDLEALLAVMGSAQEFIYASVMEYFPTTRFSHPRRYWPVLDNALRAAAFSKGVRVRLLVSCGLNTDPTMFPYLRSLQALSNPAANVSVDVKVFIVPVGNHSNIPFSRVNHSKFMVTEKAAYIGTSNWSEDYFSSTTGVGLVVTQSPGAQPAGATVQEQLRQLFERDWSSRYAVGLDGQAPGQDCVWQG
# T3: human PLD4 (phospholipase D4) protein (UniProt Q96BZ4 1-506)
# T3 chain: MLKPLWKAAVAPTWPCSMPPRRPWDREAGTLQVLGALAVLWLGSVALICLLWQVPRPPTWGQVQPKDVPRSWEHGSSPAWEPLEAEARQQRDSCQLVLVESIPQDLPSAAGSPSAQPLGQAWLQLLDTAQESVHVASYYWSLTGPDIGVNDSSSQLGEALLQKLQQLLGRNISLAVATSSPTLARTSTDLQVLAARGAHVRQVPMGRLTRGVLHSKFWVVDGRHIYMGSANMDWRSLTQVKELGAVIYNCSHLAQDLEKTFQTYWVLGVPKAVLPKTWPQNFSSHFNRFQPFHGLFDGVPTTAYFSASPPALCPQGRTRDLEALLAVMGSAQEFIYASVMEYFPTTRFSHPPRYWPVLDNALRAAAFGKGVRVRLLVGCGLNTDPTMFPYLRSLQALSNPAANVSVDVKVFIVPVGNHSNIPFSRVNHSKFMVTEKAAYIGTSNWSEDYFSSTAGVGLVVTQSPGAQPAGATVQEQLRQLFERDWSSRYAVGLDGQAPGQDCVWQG
# T4: rhesus monkey PLD4 (rhesus monkey, UniProt Q96BZ4 1-506 (human entry))
# T4 construct: also called rhesus monkey PLD4 protein
# T4 chain: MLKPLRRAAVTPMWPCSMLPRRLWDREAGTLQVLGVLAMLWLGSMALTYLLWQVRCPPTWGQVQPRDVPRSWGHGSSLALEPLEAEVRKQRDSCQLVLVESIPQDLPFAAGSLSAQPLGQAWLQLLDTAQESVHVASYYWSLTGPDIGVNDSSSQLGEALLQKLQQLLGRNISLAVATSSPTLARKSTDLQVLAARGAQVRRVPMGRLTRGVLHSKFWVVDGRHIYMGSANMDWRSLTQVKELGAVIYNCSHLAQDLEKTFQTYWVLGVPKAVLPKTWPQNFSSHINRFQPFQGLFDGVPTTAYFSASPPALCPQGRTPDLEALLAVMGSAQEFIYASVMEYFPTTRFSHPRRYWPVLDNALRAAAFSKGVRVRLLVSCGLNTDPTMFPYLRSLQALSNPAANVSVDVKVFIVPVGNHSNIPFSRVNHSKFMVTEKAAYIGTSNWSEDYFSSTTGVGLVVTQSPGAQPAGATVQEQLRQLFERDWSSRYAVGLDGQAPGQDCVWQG
# T5: human PLD3 (human, UniProt Q8IV08 1-490)
# T5 construct: also called human PLB3 [sic]
# T5 sequence: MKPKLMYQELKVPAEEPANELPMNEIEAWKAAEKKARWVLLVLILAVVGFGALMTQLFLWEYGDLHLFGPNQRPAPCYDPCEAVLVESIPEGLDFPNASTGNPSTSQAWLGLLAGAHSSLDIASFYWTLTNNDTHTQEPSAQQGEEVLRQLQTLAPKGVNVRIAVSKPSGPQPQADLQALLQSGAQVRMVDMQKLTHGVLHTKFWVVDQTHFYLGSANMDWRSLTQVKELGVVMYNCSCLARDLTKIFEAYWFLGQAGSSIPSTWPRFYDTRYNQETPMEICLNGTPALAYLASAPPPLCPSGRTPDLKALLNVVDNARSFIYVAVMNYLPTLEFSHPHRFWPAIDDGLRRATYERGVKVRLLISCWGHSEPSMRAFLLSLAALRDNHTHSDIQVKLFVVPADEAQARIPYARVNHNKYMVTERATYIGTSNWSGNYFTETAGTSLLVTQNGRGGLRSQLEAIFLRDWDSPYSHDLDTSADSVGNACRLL
# T6: human PLD5 (human, UniProt Q8N7P1 92-536)
# T6 sequence: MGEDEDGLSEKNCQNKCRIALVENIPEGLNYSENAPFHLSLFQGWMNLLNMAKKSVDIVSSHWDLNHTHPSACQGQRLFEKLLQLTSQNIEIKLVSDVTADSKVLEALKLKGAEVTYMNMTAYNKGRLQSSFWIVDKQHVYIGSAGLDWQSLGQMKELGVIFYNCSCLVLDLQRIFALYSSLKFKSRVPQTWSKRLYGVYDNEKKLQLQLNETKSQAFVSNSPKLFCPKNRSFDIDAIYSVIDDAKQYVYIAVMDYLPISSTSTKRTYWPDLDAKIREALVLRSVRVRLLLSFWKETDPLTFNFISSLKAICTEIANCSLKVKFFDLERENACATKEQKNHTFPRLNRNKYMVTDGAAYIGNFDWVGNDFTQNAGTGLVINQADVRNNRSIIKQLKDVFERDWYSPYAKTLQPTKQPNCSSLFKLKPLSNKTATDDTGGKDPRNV
# Key:
# [1] = molecular target: T1, human PLD4 (phospholipase D4) protein; test: FACS titration (0.001 to 30 µg/mL) of purified antibody on human PLD4-CT125 cells, positive cell frequency fitted with GraphPad Prism (FIG. 19)
# Experimental: For binding ability of the purified antibody, human PLD4-CT125 expression stable cell strain was reacted to nearly 100% of the positive staining rate at low concentration to high concentration (0.001 μg/mL to 30 μg/mL) of purified PLD4 antibody concentration. The frequency of staining positive cell and the antibody were data-analyzed using Graph Pad Prism version 5 software, and the dissociation constant molar concentration (Kd value) was computed in nM unit.
# [2] = molecular target: T2, cynomolgus monkey PLD4; test: FACS on cynomolgus monkey PLD4-CT125 cells (FIG. 16)
# [3] = molecular target: T3, human PLD4 (phospholipase D4) protein; test: binding to human PLD4-CT125 stable cells; apparent Kd
# [4] = molecular target: T4, rhesus monkey PLD4; test: FACS on rhesus monkey PBMC, pDC population (FIG. 18-1, 18-2)
# Experimental: PBMC of rhesus monkey from the peripheral blood (10 mL; SHIN NIPPON BIOMEDICAL LABORATORIES, LTD.), was centrifuged with specific gravity using 96% Ficoll-Paque (trademark) PLUS (GE Healthcare company, Cat No. 17-1440-02). For FACS, 5×10⁵ of cells were used per sample. The cells were washed with FACS buffer cell, and then added with 10 μL of 10% cynomolgus monkey serum diluted with FACS buffer, and reacted at 4° C. for 20 minutes. The cells were washed with FACS buffer, and then added with 100 μL of the cell culture supernatant of each hybridoma and 10 μg/mL of mouse IgG2a, κ or mouse IgG1, κ, and reacted at 4° C. for 15 minutes. The cells were washed with FACS buffer, and then added with 1 μg/mL of APC-labeled anti-mouse IgG antibody, and reacted at 4° C. for 20 minutes. The cells were washed with FACS buffer, and then reacted with 25 μL of 10 fold dilution of FITC-labeled anti-Lineage 1 antibody, PE-labeled anti-CD123 antibody, and PcrCP-Cy5.5-labeled anti-HLA-DR antibody at 4° C. for 15 minutes. The cells were washed with FACS buffer, and then resuspended in 300 μL of FACS buffer, and analyzed with FACS calibur. The used hybridoma culture supernatant was specific to PLD4, and 10 kinds of 3B4, 5B7, 7B4, 8C11, 10C3, 11D10, 13D4, 13H11, 14C1, and 11G9.6, which bound well to CAL-1 cell or human pDC, were selected. As a result thereof, 5 kinds of the hybridoma cell culture supernatants, i.e., 5B7, 7B4, 13D4, 13H11, and 14C1 specifically bound to pDC cell population of cynomolgus monkey (Lineage-CD123+HLA-DR+) (FIG. 18).
# [5] = molecular target: T5, human PLD3; test: FACS on 293T transfectants (FIG. 8)
# [6] = molecular target: T6, human PLD5; test: FACS on 293T transfectants (FIG. 8)
# [7] = molecular target: T2, cynomolgus monkey PLD4; test: FACS on 293T transfectant (FIG. 9)
Binder,Kd [1],binding result [2],Kd [3],binding result [4],binding result [5],binding result [6],binding result [7]
"anti-PLD4 mouse 13H11 antibody (antibody, mouse IgG2b, V domains shown, Tested as hybridoma culture supernatant and as purified antibody; also called mp13H11 (hybridoma)) VH: DVQLQESGPGLVKPSQSLSLTCSVTGYSISSHYYWSWIRQFPGNRLEWMGYISYDGSNNYNPSLKNRISITRDTSKNQFFLKLNSVTTEDTATYNCAREGPLYYGNPYWYFDVWGAGTTVTVSS VL: DIQMTQTTSSLSASLGGSVTISCRASQDIDNYLNWYQQKPDGTVKLLIYYTSRLHSGVPSRFSGSGSGTDYSLTISNLEQEDIATYFCQQFNTLPRTFGGGTKLEIKR",≤ 1 nM,binds,0.057 nM,binds,,,
"anti-PLD4 mouse 11G9.6 antibody (antibody, V domains shown, Tested as hybridoma culture supernatant and as purified antibody; also called mp11G9.6; mp11G9.6 antibody) VH: QVQLQQPGAELVKPGTSVKMSCKASGYTFTSYWMHWVKQRPGQGLEWIGDIYPGSDSTNYNEKFKSKATLTVDTSSSTAYMQLSSLTSEDSAVYYCARGGWLDAMDYWGQGTSVTVSS VL: DIQMTQTTSSLSASLGDRVTISCRASQDISNYLNWYQQKPDGTVKLLIYYTSRLHSGVPSRFSGSGSGTDYSLTISNLEQEDIATYFCQQGNTLPWTFGGGTKLEIKR",≤ 1 nM,,0.058 nM,,no binding,no binding,
"anti-PLD4 mouse 14C1 antibody (antibody, mouse IgG1, V domains shown, Tested as hybridoma culture supernatant and as purified antibody) VH: DVQLQESGPGLVKPSQSLSLTCSVTGYSISSHYYWSWIRQFPGNRLEWMGYISYDGSNNYNPSLKNRISITRDTSKNQFFLKLNSVTTEDTATYNCAREGPLYYGNPYWYFDVWGAGTTVTVSS VL: DIQMTQTTSSLSASLGGSVTISCRASQDIDNYLNWYQQKPDGTVKLLIYYTSRLHSGVPSRFSGSGSGTDYSLTISNLEQEDIATYFCQQFNTLPRTFGGGTKLEIKR",> 1 nM,binds,3.73 nM,binds,,,
"anti-PLD4 chimeric 11G9 antibody (antibody, human IgG1, kappa, V domains shown, Mouse 11G9.6 variable regions on human IgG1 heavy and human Ig kappa light constant regions; also called ch11G9.6; ch11G9.6 antibody) VH: QVQLQQPGAELVKPGTSVKMSCKASGYTFTSYWMHWVKQRPGQGLEWIGDIYPGSDSTNYNEKFKSKATLTVDTSSSTAYMQLSSLTSEDSAVYYCARGGWLDAMDYWGQGTSVTVSS VL: DIQMTQTTSSLSASLGDRVTISCRASQDISNYLNWYQQKPDGTVKLLIYYTSRLHSGVPSRFSGSGSGTDYSLTISNLEQEDIATYFCQQGNTLPWTFGGGTKLEIKR",,,,,no binding,no binding,binds
"anti-PLD4 mouse 13D4 antibody (antibody, mouse IgG2b, V domains shown, Tested as hybridoma culture supernatant and as purified antibody; also called mp13D4 (hybridoma)) VH: DVQLQESGPGLVKPSQSLSLTCSVTGYSITSHYYWTWIRQFPGNKLEWMGYISYDGSNNYNPSLKNRISITRDTSKNQFFLKLNSVTTEDTATYNCAREGPLYYGNPYWYFDVWGAGTTVTVSS VL: DIQMTQTTSSLSASLGDRVTISCRASQDIDNYLNWYQQKPDGTVKLLIYYTSRLHSGVPSRFSGSGSGTDYSLTISNLEQEDVATYFCQQFNTLPRTFGGGTKLEIKR",≤ 1 nM,binds,0.045 nM,binds,,,
"anti-PLD4 mouse 5B7 antibody (antibody, V domains shown, Tested as hybridoma culture supernatant and as protein A purified antibody; also called mp5B7 (hybridoma)) VH: EVQLQQSGPELVKPGASVKISCKASGYTFTDYNLHWVKQSHGKSLEWIGYIYPYNGNTGYNQKFKRKATLTVDNSSGTVYMELRSLTSEDSAVYYCARGGIYDDYYDYAIDYWGQGTSVTVSS VL: DIQMTQSPASLSVSVGETVAITCRASENIYSHIAWYQQKEGKSPQRLVYGATNLAHGVPSRFSGSGSGTQYSLKINSLQSEDFGSYYCQHFWGTPWTFGGGTKLEIKR",≤ 1 nM,binds,0.056 nM,binds,,,
"anti-PLD4 mouse 7B4 antibody (antibody, mouse IgG2b, V domains shown, Tested as hybridoma culture supernatant and as purified antibody; also called mp7B4 (hybridoma)) VH: EVQLQQSGPELVKPGASVKISCKASGYTFTDYNLHWVKQSHGKSLEWIGYIYPYNGNTGYNQKFKRKATLTVDNSSGTVYMELRSLTSEDSAVYYCARGGIYDDYYDYAIDYWGQGTSVTVSS VL: DIQMTQSPASLSVSVGETVAITCRASENIYSHIAWYQQKEGKSPQRLVYGATNLAHGVPSRFSGSGSGTQYSLKINSLQSEDFGSYYCQHFWGTPWTFGGGTKLEIKR",≤ 1 nM,binds,0.087 nM,binds,,,
